# Assay: label from the status in PepcDB records
row,Sequence,protein production
1,MLQRIGLIFLHNIVVVSNCFYFQAFLDEFTNWSRINPNKARIPMAGDTQGVVGTVSKPCFTAYEMKIGAITFQVATGDIATEQVDVIVNSTARTFNRKSGVSRAILEGAGQAVESECAVLAAQPHRDFIITPGGCLKCKIIIHVPGGKDVRKTVTSVLEECEQRKYTSVSLPAIGTGNAGKNPITVADNIIDAIVDFSSQHSTPSLKTVKVVIFQPELLNIFYDSMKKRDLSASLNFQSTFSMTTCNLPEHWTDMNHQLFCMVQLEPGQSEYNTIKDKFTRTCSSYAIEKIERIQNAFLWQSYQVKKRQMDIKNDHKNNERLLFHGTDADSVPYVNQHGFNRSCAGKNAVSYGKGTYFAVDASYSAKDTYSKPDSNGRKHMYVVRVLTGVFTKGRAGLVTPPPKNPHNPTDLFDSVTNNTRSPKLFVVFFDNQAYPEYLITFTA,failed
2,MLQTIKRADSAVSIIGAGIAGAWQALLFAQAGHAVTLHERGDAAMTDSTSHWAGGMLAPWCEAEVAEPIISRLGQRSLDIWRRELPDTPFNGSLVVAHPRERNDFERFARMTEEHRRLDAASLAELEPSLEGRFRDALFFPTEGHVEPRRVLPKLHERIRAAGGTIKFSSDVSAADLDGIVIDCRGLSARDEQPDLRGVKGEMILIETSEVQLARPVRLIHPRWPLYVIPREDNLFMLGATSIEAEDTGVSVRSALELLGAAYTVHPAFGEARIVEFGSGLRPAFPDNLPRIGIRGGRITVNGLYRHGFLIAPALAELTLQYVQRGQIDNEVMQCG,failed
3,MLQTLYTIILYLIQPLIWIRLWLRGRKAPAYRRRWGERYGFCAEKVKPDGIMLHSVSVGETLAAIPLVRALRHRYPNLPITVTTMTPTGSERVRSAFGDTVYHVYLPYDLPCALKRFFDQVRPKIVIIMETELWPNLIAELHKREIPLVIANARLSERSAAGYKKIGKLMRHILQRITLVAAQNQEDGNRFIALGLKRSSLKVTGSLKFDISVTPELAARAITLRRQWAPHRPVWIATSTHEGEEAIVLAAHRRLLATYPDLLLILVPRHPERFSTTQALAESMGFNYTLRSSGEQPSANTQVVIGDTMGELMLLYGIADLAFVGGSLVERGGHNPLEAAAHAIPVLMGPHTFNFKDICNKLDQADGLITVTDADSLGKEVGKLLADEDYRLYYGRHAVEVLHQNQGALQMLLTLLEPYLPQRTQLEHHHHHH,not failed
4,MLQYGQKSFLIVDDFTDFRTSTRSMLRELGVRDVDTADSGEQALRMCAQKRYDFILQDFHLGDGKKNGQQVLEDLIIDKHISHECVFIMVTAESSQAIVLSAIEHEPDAYLTKPFNRVGLAQRVEKLFQRKTLLKPILQALDRNRPAEVLAACAELCKKDPRLAPLCLRYRADALRNLNRFEELEKFLKAILASRPQPWVYAALGALMHKRGQNAQAQGVYEQALKAFPIMPGLYDGMAEVLVAQGDTRRAQNLLEEAVRLSPLSVRRQSTLGKLALENEDFESASKAFRHAVNQGQSSRYKDAENNLGLVQALMSKNAGFGLDARTRVEINTTLSEVAKENPEDQGLQVRARMMKAASLQQAGDPETAGKLTEQAIQRLDKMNQFFSVDSALTVAAQLQAMGQEAAAIGVLKNCVESYGDDPKVMEKVGKLTDDPSVLNAITEAVTLNRQGVRSYQGGQLGEALQLFRKALGLQPKNISIALNTAQALLRIGGDNPQPAIMQECRDALTSVAGIPASDNRYDRYRKLHIRVFGA,failed
5,MLRFKRKNFFKTINFKIALVFALLLLITLEIVGAIFVKQLESKNIQDFKQSVQIPTYIDNSLSEQLTVSSTRKANGQIKTILSNYNNTNVDEIQVVDSKGTIRGTSDVNDQSVVGQKTTDRNVKNAIYNNRTYTKSTYDTQNNGRYYVSIVPLYSSNSAGNSSQLVGVLYVRANMKSVYSTINNIMGIFVIASLAAMVLGLGIAIIIARAITRPIEEMKQQTQRIARGDYAGQVRVYSDDELGQLAKAINNLSIRVEESQESTEAERRRLDSVLSHMSDGVIATDRRGNITIINETASDFMDVTAEKAIGNSILDILKIRDDYSLRDLIENQDELMLDFSSNERDLILNAYFSLIQRESGFISGLVCVLHDVTEQQKIDNDRKQFVSNVSHELRTPLTSLRSYIEALSDGAWKDPEVAPGFLKVTQEETDRMIRMINELLSLSRMDSGTTRVDMELVNINEMFNYVLDRFDMILKKDDNPAKYYTIKREFTKRDLWVEIDTDKFTQVLDNIMNNAIKYSPDGGVVTCRLLETHNQVIISISDQGLGIPRADLGHVFDRFFRVDKARSRAQGGTGLGLAISKEVVQMLGGRIWVDSVEGKGSTFYISLPYEPYEEEDLWDDDSQA,failed
6,MLRIYAPASSANISVGFDTLGAAISPIDGSLLGDVVQIESISTGFELESAGYFVRKLPKEPQKNIVYQAYVLFSEQLKLRGANVKPLRLTLEKNMPIGSGLGSSACSIVAALVALNQFHNEPFSKMELLEMMGELEGRISGSIHYDNVAPCYLGGVQFMVQS,failed
7,MLRMKKFLVVFFLVQSIFVFAQQSKKVESALKTFNSGKIDDGIKKMEAATQEDPSEDNWDLLVQMYKYRYEYAEQQQEDALTLLLLQSLGGSKAKIKKYTSPSVCYRDLIEKSKQAELNSRSTTASMVLRAYLVDYYPDTAVADTAKKEFNSAEKYFSEKDYPNAKLHYQNACKLDPSYYKALIYLGDTHWHMKKMDSAIYYFKQGIQMHGDLLEPRKYLVDALRDSKQYDEAIQESINAITVYPDESMFEKVESLYAKTGRTFDRHWIKRGCNVNTYAGTQLVTTNETWKAYQQARGEIKTYCDTNGVIVKSNSLTKAHYMEVYSWEKMLASNLVVPQELAFAKKMADEGYLDCYVFISLYHYDEYDQFIDFAKNNKERIRTYITKYLIQ,failed
8,MLSARTMKEVVYWSPKKVADWLLENAMPEYCEPLEHFTGQDLINLTQEDFKKPPLYRVSSDNGQRLLDMIETLKMEHHMEAHKN,not failed
9,MLSFCPSCNNMLLITSGDSGVYTLACRSCPYEFPIEGIEIYDRKKLPRKEVDDVLGGGWDNVDQTKTQCPNYDTCGGESAYFFQLQIRSADEPMTTFYKCVNCGHRWKEN,failed
10,MLSIMRRPIAALAVLLAAAVSIPAQAQFSDSYKFLEAVRKKEGDKVTEALNEPGTQIVNTKDYTTGQTGLHIVVARRDLVWVQFLVAKGANVNARDNRGVTPLVLAADIGFIEGVDELIRSGARVDEANNTGETPLISAVHRRDLALVRMLIKAGANPDRPDNSGRSARDYAMLEGKGSPLLGEIEKATKDAKAAGPQKTYGPSF,failed
11,MLSKFLLFSARLSTTKILASLIIIMILATGLYQWLIHTPAFSPQVSAVSTTTENDFSLTDWTINLVDKLNWQQGGSSTFFNAGLLFVFLSLATSVGLPRQIAALVAGINLGAFIGIIVATLAATLGCFITFSVARYLLSDCITRKYPSKLAQLSAFLGEQTFLKAIVIRILPLGSNFITNIIAGVSKVSMPAYVSGSFVGFIPQMVIFSLAGSGIRLGAQNELIASATLFVIALILTTYLVKKHKAKTKN,failed
12,MLSKVIAQANIDHAEKWFERADKIVIVTHVSPDGDAIGSSLGLWHFLESQEKTVNVIVPNAFPDFLRWMPGAKDIIRYDKYTEFANKLLNEADVICCLDFNALSRIDAMADAVAQSPARKMMIDHHLNPEAFCRIIISHPEISSTSELVFRLICRLGYFEDITKEGAECIYTGMMTDTGGFTYNSNDREIYFIISELLSKGIDKDEIYRKVYNTYSEGRLRLMGYVLYDKMQVFPQFNSALVWLTKEEQSKFQYVKGDTEGFVNIPLSIKNIIFSVFLREDTEKNMIKVSLRSVGAFPCNKVAAEFFNGGGHLNASGGEFYGTMDEAIDLFKQALVKYEELLLAKK,failed
13,MLSLNQEVHGPKTSEVYGFVGSISIVVATVIFLIWGYVPDKFLESIGIYYYPSKYWAMAMPMYSMVTLLVALVFYIGLNFMSTSKPTSLNTLFDDYSREDVNFLPLMKNGEDRPIDPISDIDITRINDLMFDSHLAK,failed
14,MLSRLFLLFALVPFLELYLLVQVGTVIGAAPTILLVILTAVVGAWLARTQGLGVMARVQNDLARGIMPGQALIDGFCILLAGLLLLTPGFLTDVVGLLLLLPPFRALLASRLQRHFAVRYASSGTTAEGGHFIVYGSSGPAAHEEPRHAVVIDTQPIDSSSAATGLADDTKPLGDAQPSGDGRPRS,failed
15,MLSRLSLLSNSRAFQQARWRIYRLKVSPTVHASQYHILSGRKLAQSIREKANDEIQAIKLKHPNFKPTLKIIQVGARPDSSTYVRMKLKASKDSNVDCIIEKLPAEITEVELLKKISDINDDDSIHGLLIQLPLPRHLDETTITNAVDFKKDVDGFHRYNAGELAKKGGKPYFIPCTPYGCMKLLEEAHVKLDGKNAVVLGRSSIVGNPIASLLKNANATVTVCHSHTRNIAEVVSQADIVIAACGIPQYVKSDWIKEGAVVIDVGINYVPDISKKSGQKLVGDVDFDSVKEKTSYITPVPGGVGPMTVAMLVSNVLLAAKRQFVESEKLPVIKPLPLHLESPVPSDIDISRAQSPKHIKQVAEELGIHSHELELYGHYKAKISPNIFKRLESRENGKYVLVAGITPTPLGEGKSTTTMGLVQALSAHLGKPSIANVRQPSLGPTLGVKGGAAGGGYAQVIPMDEFNLHLTGDIHAISAANNLLAAAIDTRMFHEATQKNDSTFYKRLVPRKKGIRKFTPSMQRRLKRLDIEKEDPDALTPEEVKRFARLNINPDTITIRRVVDINDRMLRQITIGEAATEKGFTRTTGFDITVASELMAILALSKSLHEMKERIGRMVIGADYDNKPVTVEDIGCTGALTALLRDAIKPNLMQTLEGTPVMVHAGPFANISIGASSVIADLMALKLVGSEKNPLNDKNIHEPGYVVTEAGFDFAMGGERFFDIKCRSSGLVPDAVVLVATVRALKSHGGAPNVKPGQSLPKEYTEENIDFVAKGVSNLVKQIENIKTFGIPVVVAINRFETDSQAEIEVIKKAALNAGASHAVTSNHWMEGGKGAVELAHAVVDATKEPKNFNFLYDVNSSIEDKLTSIVQKMYGGAKIEVSPEAQKKIDTYKKQGFGNLPICIAKTQYSLSHDPSLKGVPRGFTFPIRDVRASIGAGYLYALAAEIQTIPGLSTYAGYMAVEVDDDGEIEGLF,failed
16,MLSVIIITKNEEANIRRCLESVHFADEIIVLDSGSTDNTLAIAREYTDKVFSTDWQGYGIQKDRALQKAQGDWVLNLDADESVSSELRQEILQAISSDTADAFRIPIQMIFYNQVLKYSGSPKRHIRLFKRENASYSKDIVHEKVLIPVNARVGKLKKPIWHHSFSDVHHVLYKLNKYSSYSAKIRIESNEKVGLVKTFFSALWMFVRCLFLQKGFLDGRAGFLFAVFGAQGAFYRGVKQIYKDRDINKLPSVNHIKEELEHHHHHH,not failed
17,MLSYCPNIFYLIMTTLCLVIQTGCSPAQDHVHSQLHSSISVTDRDGNTVQLNQPARRIVCLFEASVDDLYMLGAGKSIIGIPAKIYTSSDLYRAYSILDRRIYEKKIATPSNWEASTNIESVVALQPDLVIVSAGQKDVIQILNRMHIPVYSVLSENLQQTRKELLDLGKLTGKSQRASELVEFIDHEIQAIQQRNHTQSDQKTIYYGWSGGRIFSTSGRDSMPNTVMTLAGAHNVVNTAIDQPNVNPEKLIEWNPDVILLWNTNPKQIYQRSELKTLTAVKQQHVFNLSPSFLFNPHTPKILLAANQLNHWVYPAPHSDQAATQDKLRILTQFYGKTAAEQLIQYANDVTKE,failed
18,MLTAAVLLPLVGALVAWIVPDNRLRPLVLPAVAVPHFLLTLALLAWTPPPSPQGWIFLDPLGKIVLLCISTLFLICAVYAVGYLAYRRDRSNRVLCMGLLACLSAMTLVTASQHLGLLWVAVETTTVTMAPLIYFNRNARSIEATWKYLLICSVGIALALLGLFFLAYATLVAHRDATLLLGPILASARELNPGWLHASFIFMLVGFGSKMGIAPLHSWKPDAYGEAPGLVGALLAGGLVNCAFLAILRVYQISLASGGEYLFFQKALLTMGLISMGLAAVFMARQADFKRMLAYSSVEHVGILAVALGLGKGALFGALFHLLNNGLTKGVLFLSSGNIHRSFNSKSTEVVRGALARLPWSAGLFLAGFIAITGSPPFSPFVSEFSIVSSAFVEGRYLVGGLFLFFLAVIFIGMALTVLPLVMGVPPADAERTDYRDRLLTVGPPLALLGLILMLGVWLPEPLLRLLGEGAALLEAKP,failed
